IntAct's records for PubMed 17227844

B1: Spindle assembly checkpoint protein BUB3 (Saccharomyces cerevisiae), P26449 (parent)
chain: MQIVQIEQAPKDYISDIKIIPSKSLLLITSWDGSLTVYKFDIQAKNVDLLQSLRYKHPLLCCNFIDNTDLQIYVGTVQGEILKVDLIGSPSFQALTNNEANLGICRICKYGDDKLIAASWDGLIEVIDPRNYGDGVIAVKNLNSNNTKVKNKIFTMDTNSSRLIVGMNNSQVQWFRLPLCEDDNGTIEESGLKYQIRDVALLPKEQEGYACSSIDGRVAVEFFDDQGDDYNSSKRFAFRCHRLNLKDTNLAYPVNSIEFSPRHKFLYTAGSDGIISCWNLQTRKKIKNFAKFNEDSVVKIACSDNILCLATSDDTFKTNAAIDQTIELNASSIYIIFDYEN
partner: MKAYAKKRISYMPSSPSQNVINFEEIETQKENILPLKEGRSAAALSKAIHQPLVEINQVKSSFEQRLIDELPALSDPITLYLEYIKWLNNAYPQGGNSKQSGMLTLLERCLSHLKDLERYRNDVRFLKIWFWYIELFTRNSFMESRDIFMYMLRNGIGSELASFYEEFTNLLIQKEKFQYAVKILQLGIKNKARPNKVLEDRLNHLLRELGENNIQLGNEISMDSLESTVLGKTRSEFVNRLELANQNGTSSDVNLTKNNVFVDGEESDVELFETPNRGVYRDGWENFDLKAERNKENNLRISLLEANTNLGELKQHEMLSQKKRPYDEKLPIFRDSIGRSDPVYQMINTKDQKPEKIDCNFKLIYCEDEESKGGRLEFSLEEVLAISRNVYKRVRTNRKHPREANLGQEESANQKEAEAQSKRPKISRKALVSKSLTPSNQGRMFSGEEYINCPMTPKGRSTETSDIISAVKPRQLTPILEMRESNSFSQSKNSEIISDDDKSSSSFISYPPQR

Variants of: B1
Settings: with mad3_yeast MAD3, P47074

effect of a mutation on the interaction | Variant
disrupting interaction strength | MQIVQIEQAPKDYISDIKIIPSKSLLLITSWDGSLTVYKFDIQAKNVDLLQSLRYKHPLLCCNFIDNTDLQIYVGTVQGEILKVDLIGSPSFQALTNNEANLGICRICKYGDDKLIAASWDGLIEVIDPRNYGDGVIAVKNLNSNNTKVKNKIFTMDTNSSRLIVGMNNSQVQWFRLPLCEDDNGTIEESGLKYQIEDVALLPKEQEGYACSSIDGRVAVEFFDDQGDDYNSSKRFAFRCHRLNLKDTNLAYPVNSIEFSPRHKFLYTAGSDGIISCWNLQTRKKIKNFAKFNEDSVVKIACSDNILCLATSDDTFKTNAAIDQTIELNASSIYIIFDYEN [R197E]
